Measured values published in patent US6713265 (SYNAPTIC PHARMACEUTICAL, dated 2004).
Substitutions are numbered along the chain they refer to. Like-named read-outs stand apart in the source and are kept apart here. Each block holds one binder with its values, some of them ahead of it. Ends that are not written are not given here.

What was measured:
[1] = target: T1, rat hypothalamic Y5 receptor (rat, UniProt Q63634 1-445); test: cell-based or functional assay
T1 sequence: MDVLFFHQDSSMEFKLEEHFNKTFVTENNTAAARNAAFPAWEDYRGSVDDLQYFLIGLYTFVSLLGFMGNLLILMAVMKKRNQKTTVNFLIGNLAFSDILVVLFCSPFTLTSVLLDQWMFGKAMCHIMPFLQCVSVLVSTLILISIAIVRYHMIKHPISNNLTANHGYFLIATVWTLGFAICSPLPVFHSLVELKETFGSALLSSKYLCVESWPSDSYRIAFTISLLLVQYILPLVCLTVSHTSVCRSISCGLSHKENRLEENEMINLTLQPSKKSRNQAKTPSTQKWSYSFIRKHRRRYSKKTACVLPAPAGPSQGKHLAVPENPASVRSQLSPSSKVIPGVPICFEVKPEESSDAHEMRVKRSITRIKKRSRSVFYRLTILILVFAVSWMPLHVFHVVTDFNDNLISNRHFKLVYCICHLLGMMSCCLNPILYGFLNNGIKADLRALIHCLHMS

[2] = target: T2, rat Y1 receptor (rat, UniProt P21555 1-382); test: 125I-PYY displacement, COS-7 membranes
T2 construct: whole, on cells; also called rY1
T2 sequence (looked up): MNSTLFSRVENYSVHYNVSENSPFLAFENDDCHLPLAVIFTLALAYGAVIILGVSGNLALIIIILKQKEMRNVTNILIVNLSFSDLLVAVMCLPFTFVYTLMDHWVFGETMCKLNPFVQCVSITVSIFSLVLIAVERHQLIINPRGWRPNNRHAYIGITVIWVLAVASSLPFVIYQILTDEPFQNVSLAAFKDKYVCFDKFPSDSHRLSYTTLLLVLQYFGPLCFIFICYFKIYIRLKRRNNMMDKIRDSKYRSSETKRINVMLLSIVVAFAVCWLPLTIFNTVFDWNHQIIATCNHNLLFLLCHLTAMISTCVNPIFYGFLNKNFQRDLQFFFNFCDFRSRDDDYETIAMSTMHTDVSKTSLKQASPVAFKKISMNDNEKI

[3] = target: T1, rat hypothalamic Y5 receptor; test: 125I-PYY displacement, COS-7 membranes
[4] = target: T3, human Y5 receptor (human, UniProt Q15761 1-445); test: cell-based or functional assay
T3 sequence: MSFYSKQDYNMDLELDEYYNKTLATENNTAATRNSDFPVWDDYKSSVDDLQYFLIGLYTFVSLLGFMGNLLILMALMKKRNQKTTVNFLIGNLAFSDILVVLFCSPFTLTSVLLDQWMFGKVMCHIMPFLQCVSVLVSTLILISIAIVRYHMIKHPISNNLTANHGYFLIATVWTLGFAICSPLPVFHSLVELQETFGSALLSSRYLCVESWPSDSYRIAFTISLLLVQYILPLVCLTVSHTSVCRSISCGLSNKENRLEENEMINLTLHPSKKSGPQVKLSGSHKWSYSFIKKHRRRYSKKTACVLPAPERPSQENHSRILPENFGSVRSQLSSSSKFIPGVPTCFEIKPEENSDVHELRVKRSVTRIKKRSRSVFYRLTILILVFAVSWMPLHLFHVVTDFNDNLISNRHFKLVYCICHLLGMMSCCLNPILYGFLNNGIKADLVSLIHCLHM

[5] = target: T3, human Y5 receptor; test: 125I-PYY displacement, COS-7 membranes
[6] = target: T3, human Y5 receptor; test: 125I-PYY displacement, COS-7 membranes; remark: listed apart in the source
[7] = target: T4, rat Y4 receptor (rat, UniProt Q63447 1-375); test: 125I-PYY displacement, COS-7 membranes
T4 construct: whole, on cells; also called rY4

[8] = target: T3, human Y5 receptor; test: 125I-PYY3-36 displacement, LM(tk-) membranes
[9] = target: T5, rat Y2 receptor (rat, UniProt Q9ERC0 1-381); test: 125I-PYY displacement, COS-7 membranes
T5 construct: whole, on cells; also called rY2
T5 sequence: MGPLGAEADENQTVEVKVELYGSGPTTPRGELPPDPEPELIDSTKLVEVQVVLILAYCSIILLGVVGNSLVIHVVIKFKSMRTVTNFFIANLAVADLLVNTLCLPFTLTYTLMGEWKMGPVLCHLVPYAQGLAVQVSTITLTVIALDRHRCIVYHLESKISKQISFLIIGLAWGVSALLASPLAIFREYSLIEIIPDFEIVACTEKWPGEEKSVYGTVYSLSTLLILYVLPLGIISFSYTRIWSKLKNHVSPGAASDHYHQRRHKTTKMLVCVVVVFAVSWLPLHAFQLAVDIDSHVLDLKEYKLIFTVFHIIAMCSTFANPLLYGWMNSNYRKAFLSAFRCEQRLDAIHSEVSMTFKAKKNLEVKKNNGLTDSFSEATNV

[10] = target: T6, canine Y5 receptor (canine, UniProt O62729 1-446); test: 125I-PYY displacement, COS-7 membranes
T6 construct: Transiently expressed in COS-7 cells; also called canine (beagle) Y5; BO11
T6 sequence: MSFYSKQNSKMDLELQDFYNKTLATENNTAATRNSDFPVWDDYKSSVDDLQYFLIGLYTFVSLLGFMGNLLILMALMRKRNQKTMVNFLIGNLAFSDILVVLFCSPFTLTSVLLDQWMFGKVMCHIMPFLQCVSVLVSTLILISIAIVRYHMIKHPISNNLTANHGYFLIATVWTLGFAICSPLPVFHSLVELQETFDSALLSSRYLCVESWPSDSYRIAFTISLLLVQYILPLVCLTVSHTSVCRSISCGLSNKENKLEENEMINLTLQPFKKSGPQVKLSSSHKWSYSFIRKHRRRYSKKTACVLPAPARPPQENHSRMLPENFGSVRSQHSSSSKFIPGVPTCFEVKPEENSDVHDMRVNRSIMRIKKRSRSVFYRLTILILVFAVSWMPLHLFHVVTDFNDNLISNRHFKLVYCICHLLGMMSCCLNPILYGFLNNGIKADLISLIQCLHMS

[11] = target: T7, human Y2 receptor (human, UniProt P49146 1-381); test: 125I-PYY displacement, COS-7 membranes
T7 construct: whole, on cells
T7 sequence (looked up): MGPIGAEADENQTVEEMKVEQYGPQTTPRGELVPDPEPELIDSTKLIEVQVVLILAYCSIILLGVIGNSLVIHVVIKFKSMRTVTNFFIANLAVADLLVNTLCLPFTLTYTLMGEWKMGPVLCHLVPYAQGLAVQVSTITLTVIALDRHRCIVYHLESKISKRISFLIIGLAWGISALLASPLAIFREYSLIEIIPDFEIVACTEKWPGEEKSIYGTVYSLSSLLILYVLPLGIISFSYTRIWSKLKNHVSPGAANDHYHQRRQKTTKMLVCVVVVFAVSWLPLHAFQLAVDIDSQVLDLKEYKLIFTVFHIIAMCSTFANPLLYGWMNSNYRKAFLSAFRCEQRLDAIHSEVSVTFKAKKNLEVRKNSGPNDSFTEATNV

[12] = target: T7, human Y2 receptor; test: 125I-PYY displacement, COS-7 membranes; remark: listed apart in the source
[13] = target: T1, rat hypothalamic Y5 receptor; test: 125I-PYY displacement, COS-7 membranes; remark: listed apart in the source
[14] = target: T4, rat Y4 receptor; test: 125I-PYY displacement, COS-7 membranes; remark: listed apart in the source
[15] = target: T6, canine Y5 receptor; test: 125I-PYY displacement, COS-7 membranes; remark: listed apart in the source
[16] = target: T1, rat hypothalamic Y5 receptor; test: 125I-PYY displacement, COS-7 membranes; remark: listed apart in the source
[17] = target: T3, human Y5 receptor; test: 125I-PYY displacement, LM(tk-) membranes
[18] = target: T8, human Y1 receptor (human, UniProt P25929 1-384); test: 125I-PYY displacement, COS-7 membranes
T8 construct: whole, on cells; stably transfected 293 cells for function
T8 sequence (looked up): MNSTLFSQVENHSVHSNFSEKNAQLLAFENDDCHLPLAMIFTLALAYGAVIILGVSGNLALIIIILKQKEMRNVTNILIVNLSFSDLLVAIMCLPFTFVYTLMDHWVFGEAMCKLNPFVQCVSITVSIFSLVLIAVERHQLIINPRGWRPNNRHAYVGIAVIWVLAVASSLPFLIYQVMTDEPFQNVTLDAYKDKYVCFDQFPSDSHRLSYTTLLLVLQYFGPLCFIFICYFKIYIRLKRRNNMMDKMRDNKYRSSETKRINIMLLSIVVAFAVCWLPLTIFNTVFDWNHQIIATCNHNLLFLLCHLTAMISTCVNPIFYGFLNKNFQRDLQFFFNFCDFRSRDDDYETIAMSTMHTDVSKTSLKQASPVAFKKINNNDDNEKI

[19] = target: T9, human Y4 receptor (human, UniProt P50391 1-375); test: 125I-PYY displacement, COS-7 membranes
T9 construct: whole, on cells

[20] = target: T8, human Y1 receptor; test: 125I-PYY displacement, COS-7 membranes; remark: listed apart in the source
[21] = target: T9, human Y4 receptor; test: 125I-PYY displacement, COS-7 membranes; remark: listed apart in the source

T9 sequence (P50391 whole entry): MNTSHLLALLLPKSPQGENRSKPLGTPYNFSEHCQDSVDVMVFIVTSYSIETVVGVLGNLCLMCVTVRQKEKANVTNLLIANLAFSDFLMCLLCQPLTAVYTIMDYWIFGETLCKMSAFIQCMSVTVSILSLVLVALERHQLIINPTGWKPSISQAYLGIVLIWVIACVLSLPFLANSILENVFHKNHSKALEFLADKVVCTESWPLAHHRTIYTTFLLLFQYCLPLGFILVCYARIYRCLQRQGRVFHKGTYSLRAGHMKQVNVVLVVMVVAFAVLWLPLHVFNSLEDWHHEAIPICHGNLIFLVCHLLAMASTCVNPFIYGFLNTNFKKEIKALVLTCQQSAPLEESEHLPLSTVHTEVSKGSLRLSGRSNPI
T4 sequence (Q63447 whole entry): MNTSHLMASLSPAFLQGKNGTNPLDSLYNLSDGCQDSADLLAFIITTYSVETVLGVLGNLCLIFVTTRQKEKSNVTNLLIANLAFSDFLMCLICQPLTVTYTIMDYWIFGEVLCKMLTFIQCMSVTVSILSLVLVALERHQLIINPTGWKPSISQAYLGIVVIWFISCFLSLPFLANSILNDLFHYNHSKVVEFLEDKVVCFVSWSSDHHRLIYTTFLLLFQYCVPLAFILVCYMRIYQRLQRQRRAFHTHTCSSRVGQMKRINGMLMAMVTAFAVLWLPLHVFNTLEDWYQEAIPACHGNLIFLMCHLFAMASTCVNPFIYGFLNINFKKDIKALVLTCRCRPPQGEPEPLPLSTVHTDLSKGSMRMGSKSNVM

B1: FLRF-amide (peptide)
peptide: FLRF-NH2
- EC50, inhibition of forskolin-stimulated cAMP accumulation, 293 cells [1]: 13000 nM
- Ki [2]: 45000 nM
- Ki [3]: 5500 nM

B2: human PP2-36 (peptide, UniProt P01298 31-65, looked up)
peptide: PLEPVYPGDNATPEQMAQYAADLRRYINMLTRPRY
notes: range 2-36; Range counted on the mature peptide
- EC50, inhibition of forskolin-stimulated cAMP accumulation, LM(tk-) cells [4]: 2 nM
- Ki [5]: 2.1 nM
- Ki [6]: 2.1 nM

B3: human PP31-36 (peptide, UniProt P01298 60-65, looked up)
peptide: LTRPRY
notes: range 60-65; Range counted on the mature peptide
- Ki [7]: 26 nM
- Ki [8]: 41000 nM

B4: porcine NPY13-36 (peptide, UniProt P01304 22-45, looked up)
peptide: PAEDLARYYSALRHYINLITRQRY
notes: range 13-36; Range counted on the mature peptide; also called NPY13-36, porcine
- Ki [2]: 190 nM
- Ki [9]: 31 nM
- Ki [10]: 120 nM

B7: human PYY13-36 (peptide, UniProt P10082 41-64, looked up)
peptide: SPEELNRYYASLRHYLNLVTRQRY
notes: range 13-36; Range counted on the mature peptide
- Ki [2]: 130 nM

B9: human PP (peptide, UniProt P01298 30-65, looked up)
peptide: APLEPVYPGDNATPEQMAQYAADLRRYINMLTRPRY
notes: mature; also called PP, human; human pancreatic polypeptide
- Ki [3]: 5 nM
- Ki [7]: 0.04 nM
- Ki [14]: < 0.2 nM
- Ki [15]: < 10 nM
- Ki [16]: 5 nM
- Ki [13]: 5 nM
- Ki [10]: 6.3 nM

B10: bovine PP (peptide, UniProt P01302 30-65, looked up)
peptide: B9 peptide with V6E, D23E
notes: mature; also called PP, bovine
- EC50, inhibition of forskolin-stimulated cAMP accumulation, 293 cells [1]: 5.7 nM
- Ki [2]: 120 nM
- Ki [3]: 8.4 nM
- Ki [5]: 1.6 nM
- Ki [13]: 8.4 nM
- Ki [8]: 5 nM
- Ki [17]: 7.9 nM
- Ki [10]: 10 nM

B11: human [Ile^31, Gln^34]PP (peptide, UniProt P01298 30-65, looked up)
peptide: B9 peptide with L31I, P34Q
modifications: ends and bridges not checked
notes: mature
- EC50, inhibition of forskolin-stimulated cAMP accumulation, LM(tk-) cells [4]: 5.6 nM
- Ki [5]: 2 nM

B13: frog PP (rana temporaria) (peptide)
peptide: APSEPHHPGDQATQDQLAQYYSDLYQYITFVTRPRF
modifications: ends and bridges not checked
- Ki [2]: 720 nM

B14: human PP13-36 (peptide, UniProt P01298 42-65, looked up)
peptide: TPEQMAQYAADLRRYINMLTRPRY
notes: as for B7
- Ki [3]: 84 nM
- Ki [19]: 39 nM
- Ki [5]: 720 nM
- Ki [13]: 290 nM
- Ki [6]: 720 nM
- Ki [21]: 39 nM

Results, then the binder that gave them:

- Ki [9]: 54 nM
B5: porcine NPY22-36 (peptide, UniProt P01304 31-45, looked up)
peptide: SALRHYINLITRQRY
notes: range 22-36; Range counted on the mature peptide

- Ki [11]: 380 nM
- Ki [12]: 380 nM
B6: porcine NPY26-36 (peptide, UniProt P01304 35-45, looked up)
peptide: HYINLITRQRY
notes: range 26-36; Range counted on the mature peptide

- Ki [2]: 140 nM
- Ki [9]: 35 nM
- Ki [3]: 260 nM
- Ki [7]: 200 nM
- Ki [5]: 300 nM
- Ki [13]: 260 nM
- Ki [8]: 180 nM
B8: porcine NPY16-36 (peptide, UniProt P01304 25-45, looked up)
peptide: DLARYYSALRHYINLITRQRY
notes: range 16-36; Range counted on the mature peptide

- EC50, inhibition of forskolin-stimulated cAMP accumulation, 293 cells [1]: 130 nM
- Ki [3]: 230 nM
- Ki [14]: < 0.2 nM
- Ki [18]: 450 nM
- Ki [16]: 180 nM
- Ki [19]: 0.16 nM
- Ki [5]: 630 nM
- Ki [13]: 230 nM
- Ki [8]: 130 nM
- Ki [20]: 450 nM
- Ki [6]: 630 nM
- Ki [21]: 0.16 nM
- Ki [10]: 160 nM
B12: rat PP (peptide, UniProt P06303 30-65, looked up)
peptide: APLEPMYPGDYATHEQRAQYETQLRRYINTLTRPRY
notes: mature; also called PP, rat
